Results: patent publication US20240417484A1, “ANTIGEN-BINDING POLYPEPTIDES AGAINST CD73” (UNIVERSITÄTSKLINIKUM HAMBURG-EPPENDORF, priority 2021, published 2024)

T1: human CD73 on cells (CD73-transfected HEK cells; native on PBMCs; OCI-AML3 cells) (human, UniProt P21589 27-549)
T1 construct: also called NT5E; gene ID 4907
T1 sequence: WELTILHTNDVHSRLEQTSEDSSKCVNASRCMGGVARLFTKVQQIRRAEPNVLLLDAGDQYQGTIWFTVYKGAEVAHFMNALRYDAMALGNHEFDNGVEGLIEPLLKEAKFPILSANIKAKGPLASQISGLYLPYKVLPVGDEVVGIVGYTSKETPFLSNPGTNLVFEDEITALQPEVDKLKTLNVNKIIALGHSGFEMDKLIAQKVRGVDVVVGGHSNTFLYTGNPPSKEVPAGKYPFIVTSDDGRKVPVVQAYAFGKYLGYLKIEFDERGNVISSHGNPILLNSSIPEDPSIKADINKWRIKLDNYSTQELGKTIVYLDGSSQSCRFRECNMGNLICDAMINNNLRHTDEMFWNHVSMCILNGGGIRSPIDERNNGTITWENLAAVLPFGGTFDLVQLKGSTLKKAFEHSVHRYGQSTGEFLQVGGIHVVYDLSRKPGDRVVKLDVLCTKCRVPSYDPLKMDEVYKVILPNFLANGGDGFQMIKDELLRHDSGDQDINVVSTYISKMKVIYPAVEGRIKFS

T2: mouse CD73 on transfected HEK cells (mouse, UniProt Q61503 29-551)
T2 construct: whole, on cells; also called murine CD73; gene ID 23959
T2 sequence (looked up): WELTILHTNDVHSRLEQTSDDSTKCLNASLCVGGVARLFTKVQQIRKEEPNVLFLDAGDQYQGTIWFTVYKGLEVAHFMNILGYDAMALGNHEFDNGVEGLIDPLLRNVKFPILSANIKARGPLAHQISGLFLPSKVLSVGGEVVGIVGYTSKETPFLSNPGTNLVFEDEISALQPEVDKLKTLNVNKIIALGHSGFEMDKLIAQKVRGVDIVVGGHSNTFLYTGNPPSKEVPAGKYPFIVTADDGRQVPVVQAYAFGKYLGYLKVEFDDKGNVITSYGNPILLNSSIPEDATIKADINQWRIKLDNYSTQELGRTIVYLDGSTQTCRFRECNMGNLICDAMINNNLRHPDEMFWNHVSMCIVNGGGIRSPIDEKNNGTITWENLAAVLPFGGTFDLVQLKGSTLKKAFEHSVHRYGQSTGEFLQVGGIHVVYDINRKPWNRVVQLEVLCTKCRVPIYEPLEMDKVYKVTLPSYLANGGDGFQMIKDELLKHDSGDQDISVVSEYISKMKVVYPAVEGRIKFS

T3: recombinant human CD73 ectodomain (aa 27-549) with C-terminal His6x tag (human, UniProt P21589 27-549)
T3 construct: also called soluble recombinant human CD73; soluble human CD73
T3 sequence: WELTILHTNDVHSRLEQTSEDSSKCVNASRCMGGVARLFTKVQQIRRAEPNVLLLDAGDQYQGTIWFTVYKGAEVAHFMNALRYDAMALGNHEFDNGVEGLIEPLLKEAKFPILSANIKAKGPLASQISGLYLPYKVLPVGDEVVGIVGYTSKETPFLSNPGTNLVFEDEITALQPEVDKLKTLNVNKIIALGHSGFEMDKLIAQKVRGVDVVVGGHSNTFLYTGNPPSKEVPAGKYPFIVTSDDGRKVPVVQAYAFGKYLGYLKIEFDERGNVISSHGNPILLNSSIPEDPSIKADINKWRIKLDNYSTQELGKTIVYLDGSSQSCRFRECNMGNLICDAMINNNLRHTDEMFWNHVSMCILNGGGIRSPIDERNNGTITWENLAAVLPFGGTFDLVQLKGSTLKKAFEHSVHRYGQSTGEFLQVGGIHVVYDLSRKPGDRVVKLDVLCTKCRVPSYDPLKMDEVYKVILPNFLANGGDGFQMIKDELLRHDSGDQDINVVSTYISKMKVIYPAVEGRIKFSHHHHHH

B1: SB116 rabbit IgG hcAb (Fc fusion)
heavy: QVKLQESGGGRVQTGGSLRLSCAASGISFSITTMYWYRQAPGEQRQLVALITDRGNTYYVDSVKGRFTISRDDSKNTVYLQMNDLKPEDTAVYFCNSIPGNDWGQGTQVTVSS
notes: also called SB116-rbFc; dimeric SB116 Fc construct; not shown: hinge and Fc-domains of rabbit IgG
B2: SB139 rabbit IgG hcAb (Fc fusion)
heavy: QVQLQESGGGLVQAGGSLRLSCAASENIFNIYGMGWYRQAPGKLRDLVAKITSGGRTTYADSVKGRFTISGDNAKNTVYLQMNSLKPEDTAVYYCNSYYYWGQGTQVTVSS
notes: not shown: hinge and Fc-domains of rabbit IgG
B3: SB144 rabbit IgG hcAb (Fc fusion)
heavy: QVQLVESGGGLVQAGGSLRLSCAASGRTFSGSTMGWFRQAPGKERAFVAAIRWIGGTAKYGDSVKGRFTISIDNAKNTLYLQMNSLKPEDTAVYYCAATAGGPDYLGGRDIVYDYWGQGTQVTVSS
notes: as for B2
B4: SB96 rabbit IgG hcAb (Fc fusion)
heavy: DVQLQASGGGLVQPGGSLRLSCTASGFTLDYLSIGWFRQVPGKEREGVSCINSSGGSTNYADSLKGRLTISRDNAKNTVYLQMNSLKPEDTAVYYCAAHKYYYCSNKVEVFDYWGQGTPVTVSS
notes: VHH fused upstream of hinge and Fc of rabbit IgG; also called Nb-rbIgG hcAb SB96; not shown: hinge and Fc-domains of rabbit IgG
B5: SB121 rabbit IgG hcAb (Fc fusion)
heavy: QVQLQESGGGLVQAGGSLRLSCAASGSIGSIIAMGWYRQGPGKQRELVARMFTDDGSTNYDDSVKGRFTISRDSAGTTVYLQMNSLKPEDTAVYYCNAQRRWNAYWGPGTQVTVSS
notes: as for B2

Columns and labels:
[1] = biological target: T1, human CD73 on cells (CD73-transfected …); assay: flow cytometry, human CD73-expressing cells; competitor: human IgG hcAb SB96
Procedure: (§1) The binding specificities of the purified hcAbs were determined by flow cytometry using HEK cells transiently co-transfected with expression vectors for GFP and either mouse CD73, human CD73 or a control protein (CD39). 1×10⁶ cells were incubated with 10 μl of the Nb-rbIgG hcAb containing HEK-6E cell supernatants for 30 min at 4° C. […] The cells were resuspended in PBS and analyzed by flow cytometry on FACS Canto or FACS Celesta (BD Biosciences, Heidelberg). Data evaluation was conducted using the software FlowJo (Treestar, Stanford, US).
(§2) To evaluate the epitopes on the CD73 protein recognized by different VHHs, representative rabbit IgG hcAbs were binned against a set of human IgG hcAbs, and bound hcAbs were detected with a PE-conjugated anti-rabbit IgG secondary antibody. Cells were pre-incubated with excess human IgG hcAbs for […] at RT to block specific epitopes before addition of rabbit IgG hcAbs as detectors and further incubation for 15 min at RT. Cells were washed, and bound antibodies were detected with PE-conjugated anti-rabbit IgG polyclonal antibody. Cells were washed and analyzed by flow cytometry on a BD-FACS Canto. Data were analyzed using the FlowJo software (Treestar). Lack of blockade by a non-binding control human IgG hcAb served as negative control (unblocked), and blockade of binding with the same VHH carrying human IgG hcAb as the rabbit IgG hcAb used for detection served as positive controls for blocking. Values for blocking were determined by comparing the mean fluorescence intensities (MFIs) of PE staining of transfected cells for unblocked vs blocked rabbit hcAbs using the formula: inhibition (%)=100−(MFI (blocked)/MFI MFI(unblocked)*100). The values were rounded to whole percentages.

[2] = biological target: T1, human CD73 on cells (CD73-transfected …); assay: flow cytometry, human CD73-expressing cells; competitor: human IgG hcAb SB116
Procedure: as §1, §2

[3] = biological target: T1, human CD73 on cells (CD73-transfected …); assay: flow cytometry, human CD73-expressing cells; competitor: human IgG hcAb SB143
Procedure: as §1, §2

[4] = biological target: T2, mouse CD73 on transfected HEK cells; assay: specificity column, binding to human (h) and mouse (m) CD73
Procedure: as §1

[5] = biological target: T1, human CD73 on cells (CD73-transfected …); assay: flow cytometry, human CD73-expressing cells; competitor: human IgG hcAb SB121
Procedure: as §1, §2

[6] = biological target: T3, recombinant human CD73 ectodomain (aa …); assay: BLI (Octet), immobilized Nb-rbIgG hcAb, soluble human CD73 as analyte
Procedure: The binding off-rate constants of bivalent hcAbs to human and mouse CD73 protein were determined by […] kinetic analysis on Octet RED96 (ForteBio). Immobilization of rabbit IgG hcAbs on the protein A-biosensor surface was done in HEK-6E cell supernatant, and regeneration of analytes was done with 100 mM Glycin pH=2.5. Recombinant mouse or human CD73 ectodomain was used as analytes and tested at a saturating dose of 200 ng/μl. Sensorgrams were fitted using least square regression in association than dissociation Model in Prism8 (Graphpad).

[7] = biological target: T1, human CD73 on cells (CD73-transfected …); assay: flow cytometry, human CD73-expressing cells; competitor: human IgG hcAb SB139
Procedure: as §1, §2

[8] = biological target: T1, human CD73 on cells (CD73-transfected …); assay: flow cytometry, human CD73-expressing cells; competitor: IPH5301
Procedure: as §1, §2

[9] = biological target: T1, human CD73 on cells (CD73-transfected …); assay: flow cytometry, human CD73-expressing cells; competitor: MEDI9447
Procedure: as §1, §2

[10] = biological target: T1, human CD73 on cells (CD73-transfected …); assay: flow cytometry, human CD73-expressing cells; competitor: human IgG hcAb SB141
Procedure: as §1, §2

| Binder | percent inhibition of binding [1] | percent inhibition of binding [2] | percent inhibition of binding [3] | binding result [4] | percent inhibition of binding [5] | koff [6] | percent inhibition of binding [7] | percent inhibition of binding [8] | percent inhibition of binding [9] | percent inhibition of binding [10] |
| --- | --- | --- | --- | --- | --- | --- | --- | --- | --- | --- |
| B1 | 100% | 72% | 65% | binds | 6% | 0.00017 s⁻¹ | 2% | 94% | 97% | 47% |
| B2 | 76% | 75% | 77% | binds | 3% | 0.046 s⁻¹ | 50% | 66% | 73% | 47% |
| B3 |  |  |  | binds |  | 0.00023 s⁻¹ |  |  |  |  |
| B4 | 100% | 73% | 70% | binds | -29% | 3.9e-05 s⁻¹ | -25% | 90% | 92% | 17% |
| B5 | 53% | 75% | 85% | binds | 69% | 0.022 s⁻¹ | 0% | 77% | 74% | 77% |
